# Source: patent publication US20080064059A1
# What was measured:
# [1] = biological target: glycomyoglobin containing GalNAc-α-threonine at position 4 (myoglobin 4TAG mutant, C-terminal 6x His tag) (UniProt P02185); experiment: enzyme-linked lectin-binding assay (ELLA), immobilized myoglobin samples, biotinylated lectin, streptavidin-alkaline phosphatase, pNPP at 405 nm; reference: equivalent concentrations of tyrosine-myoglobin
# [2] = biological target: glycomyoglobin containing β-GlcNAc-serine at position 4 (Gly4TAG mutant myoglobin, C-terminal His6 tag) (UniProt P02185); experiment: ELISA-like assay, 200 ng immobilized myoglobin, biotinylated BSII, streptavidin-alkaline phosphatase, absorbance at 405 nm; reference: wild-type myoglobin
# Chain of glycomyoglobin containing β-GlcNAc-serine at position 4 (Gly4TAG mutant myoglobin, C-terminal His6 tag) (P02185 other isoform, or with tags, fused parts or gaps mutant): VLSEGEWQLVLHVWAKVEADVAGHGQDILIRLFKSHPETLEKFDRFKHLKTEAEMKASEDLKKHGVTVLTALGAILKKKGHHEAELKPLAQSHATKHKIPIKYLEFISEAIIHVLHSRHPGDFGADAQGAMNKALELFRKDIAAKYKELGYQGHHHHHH
# Chain of glycomyoglobin containing GalNAc-α-threonine at position 4 (myoglobin 4TAG mutant, C-terminal 6x His tag) (P02185 other isoform, or with tags, fused parts or gaps mutant): as above
# Chain of Vicia Villosa lectin (VVL), biotinylated conjugate (P56625 whole entry): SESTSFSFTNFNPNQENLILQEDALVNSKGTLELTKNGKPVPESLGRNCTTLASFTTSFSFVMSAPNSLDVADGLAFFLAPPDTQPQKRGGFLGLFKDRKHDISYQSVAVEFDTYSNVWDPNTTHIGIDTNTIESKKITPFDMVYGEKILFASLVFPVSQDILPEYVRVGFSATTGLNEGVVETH
fold signal increase versus tyrosine-myoglobin [1] [fold],fold signal versus wild-type myoglobin [2] [fold],Substance
10,,"Vicia Villosa lectin (VVL), biotinylated conjugate (from UniProt P56625 1-185)"
,> 200,"Bandeiraea simplicifolia II (BSII) lectin, biotinylated"
5,,"Dolichos Biflorus lectin (DBL), biotinylated conjugate (from UniProt P05045 23-275)"
